Experimental findings from article PMC10033316, “Expression of GnT-III decreases chemoresistance via negatively regulating P-glycoprotein expression: Involvement of the TNFR2-NF-κB signaling pathway” (The Journal of Biological Chemistry, 2023) are described below.

This data set concerns the molecule itself. Kind of data set: cross-linking; cells without TNFα stimulation, 1 mM BS3 for 30 min at room temperature on whole cells; RIPA lysate, nonreducing SDS-PAGE, anti-Flag blot.

B1: TNF receptor 2 (TNFR2) with a 3x FLAG tag, overexpressed in K562/ADR cells (bisected N-glycans lacking) (receptor, human, UniProt P20333 23-461, looked up)
chain: LPAQVAFTPYAPEPGSTCRLREYYDQTAQMCCSKCSPGQHAKVFCTKTSDTVCDSCEDSTYTQLWNWVPECLSCGSRCSSDQVETQACTREQNRICTCRPGWYCALSKQEGCRLCAPLRKCRPGFGVARPGTETSDVVCKPCAPGTFSNTTSSTDICRPHQICNVVAIPGNASMDAVCTSTSPTRSMAPGAVHLPQPVSTRSQHTQPTPEPSTAPSTSFLLPMGPSPPAEGSTGDFALPVGLIVGVTALGLLIIGVVNCVIMTQVKKKPLCLQREAKVPHLPADKARGTQGPEQQHLLITAPSSSSSSLESSASALDRRAPTRNQPQAPGVEASGAGEARASTGSSDSSPGGHGTQVNVTCIVNVCSSSDHSSQCSSQASSTMGDTDSSPSESPKDEQVPFSKEECAFRSQLETPETLLGSTEEKPLPLGVPDAGMKPS
modifications: N-glycosylated; modification by bisected N-glycans on TNFR2 significantly suppressed in K562/ADR cells
notes: TNF receptor 2 (TNFR2), human, cDNA cloned from K562 cells; Same construct as m1; host K562/ADR cells have very low GnT-III; also called TNFR2-Flag; source: K562/ADR cells infected by virus with the CSIV-TRE-RfA-CMV-KT-TNFR2 plasmid, on the cell surface; not shown: 3x FLAG, C-terminal, kept
In the case of B1, the “stoichiometry N” value was determined as 3.

By stoichiometry N is commonly meant a count of units in the complex or per binding partner.
